Laboratory results from paper PMC5964162.

Molecular target: Human complement C1q (human) (UniProt P02745)
Assay: ELISA

Chain of UniProt P02745 (P02745 23-245, chain 1 of 3): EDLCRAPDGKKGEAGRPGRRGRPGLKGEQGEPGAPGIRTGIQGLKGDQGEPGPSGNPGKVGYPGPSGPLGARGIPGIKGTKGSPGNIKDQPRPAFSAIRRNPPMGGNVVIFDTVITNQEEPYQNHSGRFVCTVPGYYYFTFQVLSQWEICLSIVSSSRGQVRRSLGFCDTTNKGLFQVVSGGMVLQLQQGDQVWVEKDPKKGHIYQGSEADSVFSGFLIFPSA
Chain of UniProt P02745 (P02746 28-253, chain 2 of 3, further chain): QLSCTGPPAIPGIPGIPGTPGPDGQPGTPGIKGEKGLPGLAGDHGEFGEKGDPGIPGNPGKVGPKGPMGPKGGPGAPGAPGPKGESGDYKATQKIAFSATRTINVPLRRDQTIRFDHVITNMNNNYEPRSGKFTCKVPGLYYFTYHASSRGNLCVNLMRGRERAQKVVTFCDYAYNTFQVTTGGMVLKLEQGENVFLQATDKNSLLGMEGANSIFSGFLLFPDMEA
Chain of UniProt P02745 (P02747 29-245, chain 3 of 3, further chain): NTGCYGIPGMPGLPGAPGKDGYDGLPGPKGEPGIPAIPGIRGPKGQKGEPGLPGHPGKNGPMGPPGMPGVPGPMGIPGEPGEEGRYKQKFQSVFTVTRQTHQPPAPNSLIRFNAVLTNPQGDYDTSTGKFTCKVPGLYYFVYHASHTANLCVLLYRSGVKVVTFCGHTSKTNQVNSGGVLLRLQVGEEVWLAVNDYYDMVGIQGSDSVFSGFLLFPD

Substance: Recombinant SntA protein of Streptococcus suis (from UniProt Q8VUN9 1-813) (natural protein)
- percent of C1q–IgG binding left with 50 µM SntA: 3.34%
